# Assay results as given in the RNAGym collection of RNA variant scans (doi:10.1073/pnas.2313332121).
# B1: TPR t1 (parent)
# chain: GACCAAUCUGCCCUCAGAGCUCGAGAACAUCUUCGGAUGCAGAGGAGGCAGGCUUCGGUGGCGCGAUAGCGCCAACGUCCUCAACCUCCAAUGCAUCCCACCACAUGAUGAUGCCUGAAGAGCCUUGGUUUUUUG
# Variants of: B1
# Experiment: polymerase ribozyme fitness, log enrichment relative to wild type (log ratio); higher = more active; in vitro selection for triplet polymerase activity
# In short: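 Fitness measures genotype enrichment against wild-type enrichment on a logarithmic scale, with inverse-variance-weighted averaging of replicates. The logarithm is base 2, and genotypes were kept only with ≥10 input reads and ≥1 read per output in Illumina sequencing. The sequenced libraries came from one triplicate in vitro selection round, including frozen incubation at −7 °C, of PCR-built, transcribed mutant libraries of each subunit of a heterodimeric triplet polymerase ribozyme.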
row,Variant,polymerase ribozyme fitness (log ratio)
1,C28U G58A,-2.03
2,C13U G63A U96A,-1.68
3,G10A C13U,0.219
4,A24G U54C C62G,-3.96
5,C79A G120C,0.837
6,G61A C88G G120A A121C,-1.75
7,G71A,-0.673
8,A90G C97U A105C U130A,-3.67
9,G36U C56U,-1.07
10,U7A G44C,-0.264
11,A41U C72G,-2.06
12,U14A A66U C98U,-4.97
13,C11U C22G C40U U106G,-4.43
14,A16U C40A A100U,-3.86
15,G45C C73U G117A G135U,-4
16,G110U G122A,-2.47
17,A5C U7C G57U C99U U112A,-3.19
18,C13G A27U G47U G63A U78A,-6.63
19,G44A G60A A121C G122U,-1.92
20,A26U G36C G61U U81A U87C G120C,-4
21,C20U A24U G60C G63C G69A U81G C98G U109G,-6.52
22,G36C G69U U132C,-0.866
23,U106A C114A,-1.93
24,G51U C56A C98U C99U C124A U131G,-6.41

row,Variant,polymerase ribozyme fitness (log ratio)
1,G69C G117C,-3.97
2,G10C G45A C104A,-2.44
3,A121U G135U,1.28
4,U92A U106A C114A C123A,-5.83
5,G47U C64A A121U,-4.82
6,A41G C89G G128C,-3.51
7,A6G U21C C114A,-0.942
8,U30C U106A,-1.11
9,U7C A26G G45A,-2.55
10,U7G A41C C114G,-0.902
11,G47U U130G,-2.4
12,A46U G71A C72G A119G,-1.69
13,C12U G113C G120U,-3.12
14,G39A C72U U81G U96A G113C C124U,-6.86
15,U9A U116C U125A,0.151
16,C8U A16U G47A C101A C124U,-1.94
17,C15A C62U A84G C94U,-3.06
18,A26C C56G,-5.43
19,A26G A66U A84U G110U G135U,-5.61
20,G57A G58A A83U,-0.302
21,C12A A50U A74C A84G U112A,-4.85
22,G17A C85U A91C A108G A111C C124U,-6.83
23,A43G G71A A100U,-6.07
24,G110C G135C,-4.01

row,Variant,polymerase ribozyme fitness (log ratio)
1,U38A C40U,-1.9
2,U30A G52U G60A,-4.07
3,C3G G48C,-2.83
4,G61C U112G,-2.38
5,C11U G69U,0.459
6,A5U U7G A43U G71U A83C,-2.36
7,C62U G110A,-1.23
8,C12A C40G,-1.7
9,C11U A27U C62U C88G C97G C98U C99U C114G C124A G128A,-7.25
10,G52C C56A G57A C89U A91C C94U,-3.35
11,A26U C62U A83C C104G A105C C114U U129A,-7.45
12,C20A A90U,-3.71
13,G47A A50U C80A C88U A111G,-4.88
14,A18C C49G C89G C123U,-2.67
15,C4G U59C G65A C85U G110C,-5.92
16,G48U C86A A91C,-1.98
17,A2G G69A,-2.65
18,A5G C12A C72G U87A C115G U131C,-3.53
19,C56G A90U U92G C97U,-2.65
20,C70G U81A,-5.64
21,A18U A95G,-2.21
22,C34G G36A C49A C86U C124A,-6.09
23,C11A C34A C88G U106C,-5.02
24,C56G U87A,-1.33

row,Variant,polymerase ribozyme fitness (log ratio)
1,C11A C40U G45A C70A G120C,-1.21
2,C56U G113U,-2.72
3,C104A U130A,-2.46
4,G36A G61A G77A,-1.53
5,G61A G135U,-0.801
6,C49G C62U C88A A95C U130G,-4.6
7,A41U G44C G47U C70U A84C A108U G117U,-6.98
8,A6U C13U C72A,0.0717
9,G58C G71U C101G U112C U129G,-0.74
10,C53G C102U U112A G120U,-4.93
11,G42A C72G G93U,-3.39
12,G57U G120C,0.593
13,G47U A66G A118G U130G,-4.13
14,C22A G42A C73A,-7.34
15,A46U A74U C82A,-1.61
16,C104U C123G,1.92
17,A50G G63U,-1.73
18,C79G A108G,-3.63
19,G69A G113A A121U,-1.68
20,C34A A41G A74U C88U C101U,-4.89
21,C13U A50U G77C,-1
22,C13G C56U U112C,0.0684
23,C3U A105U,-1.94
24,G44U G48U,-2.5

row,Variant,polymerase ribozyme fitness (log ratio)
1,G48C C49A C56U U87A U96A G120C,-2.17
2,C13U A26U C40A U112A,-4.39
3,C20U G45C,-3.07
4,A111G G117U,-4.12
5,G61U C101U,0.0554
6,A90C A118C,-2.82
7,C3U G63A C76U G110A C124U,-5.42
8,A119C C124G,-2.41
9,G42C G61U G120A,-0.458
10,U14A A37U A84G,-2.93
11,C22A C123A U125G,-4.58
12,C13U G63C U92A,-3.34
13,C12G A74C C89A,-1.6
14,G57C U92G G117A,-3.55
15,A5C C73G C86G C99U G110A U112G,-7.21
16,G63C G93C C97U C101U,-1.93
17,U7A C12U U59C,0.392
18,A37C G44U C62A,-2.41
19,A27G C40G G107C C115U G120U U131A,-5.69
20,U116A C123U,-1.63
21,U112C U125A,1.63
22,C13U G48U G63C G110C,-4.51
23,A6U G57C G69A A90G,-2.65
24,C15G G93A,-3.21

row,Variant,polymerase ribozyme fitness (log ratio)
1,C13A C124A,0.0418
2,U7G G39U C49U,-0.696
3,C64U C97A,-5.08
4,A18C G52A G61A A118G,-2.74
5,C12A C13G,-0.617
6,G69U G93C,-0.253
7,A41U C123G G135U,0.204
8,G39A G61A U78C,-0.505
9,G63U C70U U129A,-1.48
10,G19A G47A,-4.12
11,A6C A50C C70A G127U,-4.88
12,C98A A111U G122A C124G,-6.05
13,G10C A75U C98A U109A G127C,-5.13
14,A2C G120U C124A U131G,-1.15
15,G36C C98U U129A,-3.81
16,A121C U131G,1.12
17,G60C U96A,-1.77
18,G10A A29U G69U A83U C114G C123G,-2.26
19,U54G U78A G93U,-4.13
20,A27C C49G G77U,-5.08
21,C85G C88U C123A,-0.368
22,G52A G57A U129A,-2.51
23,C13U U14A C15G G63A U81G U109A,-7.58
24,C13A G39C,-2

row,Variant,polymerase ribozyme fitness (log ratio)
1,G44A A118U,-0.0596
2,C4A G128C,-1.53
3,A2U C12U,-2.36
4,G63A C82U,-1.51
5,C13A A105U,-3.91
6,C28G G60A C79G,-4.94
7,G45C A74G A75U G77C C88U G135C,-1.28
8,G42U C94G U96C,-4.23
9,C56U U96G,-0.658
10,C56G G71U G120A G127A,-4.03
11,C8G C12U C15U G120U,2.64
12,G48A A66U,-2.3
13,G35A C62A A119G,-4.46
14,A43G,-1.32
15,G45U A46U,-2.3
16,U30G A43U G45U G47A C49A U106A A119G,-4.24
17,G51U G61U G127A,-4.92
18,G60U U129A,-1.37
19,G120C G127A U134C,-2.55
20,A26C C56U G61A G63U C115U U129G U131A,-4.23
21,G10A A29U G110A,-2.97
22,A43U A121G,1.17
23,G10A A37C A84C A95G,-0.834
